# Source: patent publication US7012128B2, “Interaction between cyclin D1 and steroid receptor co-activators and uses thereof in assays” (TopoTarget UK Limited, priority 1998, dated 2006)
# B1: SRC1-DN: dominant negative mutant of SRC-1 encoding amino acids 1245-1441 of SRC-1 (protein, UniProt Q15788 1245-1441, looked up, fragment)
# chain: FAPSLSPGSSMVPMPIPPPQSSLLQQTPPASGYQSPDMKAWQQGAIGNNNVFSQAVQNQPTPAQPGVYNNMSITVSMAGGNTNVQNMNPMMAQMQMSSLQMPGMNTVCPEQINDPALRHTGLYCNQLSSTDLLKTEADGTQQVQQVQVFADVQCTVNLVGGDPYLNQPGPLGTQKPTSGPQTPQAQQKSLLQQLLTE
# Experiments:
# Assay type in all cases: cell-based
# wild type ER = test: ERE-TATA-luciferase transactivation of wild type ER in COS-7 cells; settings: COS-7, 3 μg SRC1-DN, 10 nM ligand
# Procedure: FIG. 1. Mapping of the region of cyclin D1 required for ER-mediated transactivation. • (A) The effect of cyclin D1 deletion mutants on ER activation in the presence of ligand. The cyclin D1 derivatives used in this study are shown in the left panel; right side of Figure represents the relative capacity of the mutants to potentiate ERE-dependent transcription. ER-negative COS-7 cells were transfected with expression vectors for wild type ER (200 ng), cyclin D1 or cyclin D1 mutants (2.5 μg), an internal control §-galactosidase plasmid (0.5 μg) and an ERE-TATA-luciferase reporter (3 μg). The effect on ER transactivation of wild type cyclin D1 was set to 100%. These studies were performed in three separate experiments and expressed as mean values with standard deviation less then […]. The alignment of leucine-rich motif of ER with D-type cyclins are shown on the bottom; the leucine-rich motif in cyclin D1 is indicated as a dark box. The identifiers for the sequences shown are as follows: Cyclin D1 (SEQ ID NO:11), Estrogen receptor (SEQ ID NO:12), the Cyclin D2 (SEQ ID NO:13), and the Cyclin D3 (SEQ ID NO:14). • (B) ER activation by D-type cyclins, cyclin D1 L254/255A point mutant (D1-LALA) and SRC-1 in the presence of ligand. COS-7 cells were transfected with D-type cyclin expression vectors, cyclin D1 Leucine-to-Alanine point mutant (D1-LALA) or SRC-1 expression vector together with wild type ER expression vector, an ERE-TATA-luciferase reporter plasmid and the internal control β-galactosidase construct. Data are expressed as relative luciferase activity compared with basal ERE-luciferase activity of wild type ER and are normalized for transfection efficiencies.
# FIG. 3. Role of coactivators in cyclin D1—induced transactivation. • (A) Effect of a dominant negative form of SRC-1 (SRC1-DN) on ER transactivation. SRC1-DN encoding amino acids 1245-1441 of SRC-1 (1, 2.5 and 5 μg) was introduced by transient transfection together with wild type ER (200 ng) and was tested for its ability to modulate ERE-dependent transcription. • (B) Effect of SRCI-DN on SRC-1 and TIF 2 mediated ER transactivation. SRC-1 (3 μg) or TIF-2 (3 μg) were transfected with SRC1-DN (3 μg) and tested for ER transactivation. • (C) Effect of SRC1-DN on cyclin D1-induced transactivation of ER 1-535 mutant. Cyclin D1 was cotransfected with SRC1-DN (1, 2.5, 5 μg) and tested for its effect on an ER harboring a deletion of coactivator binding site in helix 12 (ER 1-535). • (D) Effect of SRC1-DN on cyclin D1-induced transactivation of ER L543/544A mutant. Cyclin D1 and SRC1-DN (1, 2.5, 5 gg) were transfected and tested for the activity of ER helix 12 point mutant (ER L543/544A). The transient transfections (A-C) were performed in COS-7 cells, which were maintained in DMEM with 10 nM ligand. The relative activity was calculated by normalizing to the internal control and was divided by luciferase activity of ER (mutant) in the presence of ligand. The transfection for each set of conditions were done at least in four independent experiments and expressed as average ±SD.
# To study how cyclin D1 activates ER, cyclin D1 deletion mutants were tested for their effect on ER-transactivation. COS-7 cells were transfected with cyclin D1 mutants, together with ER and a luciferase reporter gene construct driven by a minimal TATA promoter linked to an estrogen response element (ERE). […] This part of the protein is not involved in CDK interaction and is poorly conserved among the different cyclins. […] To test the relevance of this leucine-rich domain of cyclin D1 in ER activation, a cyclin D1 mutant was constructed in which leucines 254 and 255 were mutated to alanines (D1 L254/255A). This mutation in cyclin D1 is similar to the mutation in ER (ER L543/544A) that interferes with coactivator binding to AF-2 (Danielian et al., 1992). […]
# [1] = tested on: ER 1-535 and ER L543/544A mutants; test: ERE-TATA-luciferase transactivation of AF-2 mutant ERs in COS-7 cells; settings: COS-7, 1, 2.5, 5 μg SRC1-DN, 10 nM ligand
# Procedure: FIG. 2. Effect of cyclin D1 on helix 12 mutants of ER. The effect of cyclin D1 on ER mutants was tested in COS-7 cells (A, B) and in U2-OS cells (C, D) in the presence of ligand. An ERE-TATA-luciferase reporter construct was used in transient transfections together with cyclin D1 and ER 1-535 (A, C) or ER L543/544A mutants (B, D). β-Galactosidase served as an internal control. The reporter activity was determined both in the presence (black bars) and in the absence (white bars) of 10 nM 17β-estradiol. The relative luciferase activity was calculated by normalizing to the b-galactosidase activity. The relative reporter activity of wild type ER in the presence of ligand was used as a reference and set at 100%. […] The transfection were performed in at least five separate experiments and expressed as average ±SD.
# FIG. 3. Role of coactivators in cyclin D1—induced transactivation. • (A) Effect of a dominant negative form of SRC-1 (SRC1-DN) on ER transactivation. […] The relative activity was calculated by normalizing to the internal control and was divided by luciferase activity of ER (mutant) in the presence of ligand. The transfection for each set of conditions were done at least in four independent experiments and expressed as average ±SD. […]
# [2] = molecular target: E2F-1 transcription factor (Homo sapiens, UniProt Q01094); test: Effect on E2F-1 transcription factor (data not shown)
# Sequence of E2F-1 transcription factor (Q01094 whole entry): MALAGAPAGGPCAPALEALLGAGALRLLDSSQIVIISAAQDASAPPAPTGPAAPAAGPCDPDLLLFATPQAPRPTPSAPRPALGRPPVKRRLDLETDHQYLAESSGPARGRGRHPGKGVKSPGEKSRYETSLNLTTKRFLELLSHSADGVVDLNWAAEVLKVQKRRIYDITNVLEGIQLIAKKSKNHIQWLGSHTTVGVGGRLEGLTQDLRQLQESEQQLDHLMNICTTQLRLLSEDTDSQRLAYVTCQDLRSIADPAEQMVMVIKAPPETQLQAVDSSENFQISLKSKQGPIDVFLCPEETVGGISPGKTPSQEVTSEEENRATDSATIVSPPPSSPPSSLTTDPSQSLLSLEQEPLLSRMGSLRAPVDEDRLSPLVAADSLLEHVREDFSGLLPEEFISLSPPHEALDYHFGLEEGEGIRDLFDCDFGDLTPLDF
molecule,measurement,setting,value
B1,effect on SRC-1 and TIF2 mediated ER transactivation,wild type ER,inhibited
same,effect on cyclin D1-induced activation of the ER AF-2 mutants,[1],markedly repressed
same,effect on E2F-1 transcription factor,[2],inactive
